Experimental findings from patent publication US20140234868A1, “USE FOR GLYCOLIPOPROTEIN GINTONIN, ISOLATED AND IDENTIFIED FROM GINSENG, AS A NATURAL MEDICAL-PLANT DERIVED LIGAND” (KONKUK UNIVERSITY INDUSTRIAL COOPERATION CORP., priority 2011, published 2014) are described below.

A word on the EC50: it is the concentration at which the effect is half-maximal.

What all share (assay type): cell-based
One assay has as its target T1, LPA6 receptor (Homo sapiens, UniProt P43657).
T1 construct: host or cells: B103 rat neuroblastoma cells
T1 sequence (P43657 1-344): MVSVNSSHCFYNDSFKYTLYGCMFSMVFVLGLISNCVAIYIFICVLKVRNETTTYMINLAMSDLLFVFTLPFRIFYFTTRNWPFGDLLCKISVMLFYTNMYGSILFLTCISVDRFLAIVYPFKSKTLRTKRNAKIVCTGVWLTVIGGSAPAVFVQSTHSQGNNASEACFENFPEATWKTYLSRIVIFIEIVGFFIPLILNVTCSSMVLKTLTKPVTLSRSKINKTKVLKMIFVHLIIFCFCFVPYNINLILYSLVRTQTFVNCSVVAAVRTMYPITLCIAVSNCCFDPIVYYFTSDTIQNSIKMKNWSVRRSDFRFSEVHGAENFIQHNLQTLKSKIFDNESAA
The experiment in a line: Intracellular free Ca2+ (Fura-2AM) in LPA6-expressing B103 cells. From the text: LPA family receptors are endogenous to cells of most organs. B103 rat neuroblastoma cells, known as LPA receptor-null cells (Valentine et al., Biochim Biophys Acta 1780. 597-605) were transiently transfected with a plasmid (vector) carrying one of genes coding for LPA1(edg-2), LPA2(edg-4), LPA3(edg-7), LPA4, LPA5 and LPA6 receptors or a plasmid carrying none of them (empty vector). Two or three days after transfection, the cells are suspended, and made permeable. Then, the permeable cells are treated with Fura-2AM, a fluorescent dye binding to calcium, and then with gintonin, followed by spectrofluorephotometry to examine whether gintonin induces an increase in intracellular free Ca^2+ level. […]

The next assay deals with NMDA receptor. The experiment in a line: NMDA receptor activity in oocytes expressing active or inactive RPTP alpha. The conditions noted are these: oocytes expressing active or inactive RPTP α. How it is done: Two-electrode voltage-clamp recordings were obtained from individual oocytes placed in a small Plexiglas net chamber (5 ml). Electrophysiological experiments were performed using microelectrodes filled with 3 M KCl (resistance of 0.2-0.7 MΩ) and an Oocyte Clamp amplifier (OC-725C; Warner Instrument, Hamden, Conn.). For physiological recordings of NMDA receptor activity, oocytes were first perfused with Mg^2+-free ND96 (mM: 96 NaOH, 2 KOH, 0.3 CaCl2, 5 HEPES pH 7.6 with methanesulfonic acid). Then, the oocytes were clamped at −60 mV holding potential, followed by recoding NMDA currents (induced by administering […]) (Zheng et al., J Neurosci. 17, 8676-8686, 1997; Chang and Kuo, J Neurosci. 28, 1546-1556, 2008).

A further assay has as its target LPA2 receptor (Homo sapiens, UniProt Q9HBW0). The experiment in a line: Intracellular free Ca2+ (Fura-2AM) in LPA2-expressing B103 cells. The arrangement: host or cells: B103 rat neuroblastoma cells. The text has this: LPA family receptors are endogenous to cells of most organs. B103 rat neuroblastoma cells, known as LPA receptor-null cells (Valentine et al., Biochim Biophys Acta 1780. 597-605) were transiently transfected with a plasmid (vector) carrying one of genes coding for LPA1(edg-2), LPA2(edg-4), LPA3(edg-7), LPA4, LPA5 and LPA6 receptors or a plasmid carrying none of them (empty vector). Two or three days after transfection, the cells are suspended, and made permeable. Then, the permeable cells are treated with Fura-2AM, a fluorescent dye binding to calcium, and then with gintonin, followed by spectrofluorephotometry to examine whether gintonin induces an increase in intracellular free Ca^2+ level.
(1) preparing large quantities of plasmids carrying respective LPA family receptor genes and an empty plasmid carrying none of them through amplification and purification (maxi-preparation); (2) verifying the expression of LPA receptors wherein B103 cells are transfected with haematoglutin (HA)-tagged LPA receptors, and then subjected to Western blotting analysis using an anti-HA primary antibody and a horseradish peroxidase (HRP)-conjugated secondary antibody to develop a color; (3) verifying the expression of LPA receptors wherein B1-3 cells are transfected with haematoglutin (HA)-tagged LPA receptors, and then subjected to confocal laser microscopy using an anti-HA antibody and a fluorescence dye Cy3-conjugated secondary antibody; (4) transfecting the empty plasmid and each of the plasmids carrying LPA family receptor genes into B103 cells; (5) treating the transfected B103 cells with trypsin (0.05% trypsin with EDTA, w/v) 2-3 days post-transfection, to give a cell suspension; (6) culturing the suspended B103 cells with Fura-2AM (2.5 μM); and (7) treating the suspended B103 cells with gintonin and quantifying a change in intracellular free Ca^2+ level in a cuvette by spectrofluorephotometry using Fura-2AM.
Human LPA (lysophosphatidic acid) receptor subtypes, orphan GPCRs (G protein coupled receptors) and plasmids carrying GPCRs were purchased from Missouri S&T resource Center (www.cDNA.org).
The transient transfection of LPA receptor subtypes was carried out with the aid of Lipofectamine 2000 of Invitrogen. A plasmid (10.8 μg) carrying each LPA receptor (LPA1, LPA2, LPA3, LPA4, LPA5, and LPA6) was transfected into B103 cells grown in 10-cm dishes, and incubated for 2 days prior for use in experiments.
In this Example, gintonin, or ginsenoside Rb1 or Rg1 was examined for its ability to induce a transient increase of [Ca^2+]i in Fura-2AM-loaded B103 cells which were transfected with LPA receptors and in Fura-2AM-loaded B103 cells which were not transfected with LPA receptors. […]

Chain of LPA2 receptor (Q9HBW0 whole entry): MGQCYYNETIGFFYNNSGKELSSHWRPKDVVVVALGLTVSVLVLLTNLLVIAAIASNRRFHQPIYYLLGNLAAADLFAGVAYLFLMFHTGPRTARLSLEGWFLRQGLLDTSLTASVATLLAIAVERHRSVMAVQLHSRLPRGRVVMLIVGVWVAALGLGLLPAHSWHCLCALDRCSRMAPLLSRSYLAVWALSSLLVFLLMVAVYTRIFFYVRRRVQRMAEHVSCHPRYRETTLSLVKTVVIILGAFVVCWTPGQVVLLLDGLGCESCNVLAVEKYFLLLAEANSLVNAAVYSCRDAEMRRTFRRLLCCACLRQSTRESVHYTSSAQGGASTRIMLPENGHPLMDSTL

B1: gintonin: ginseng-derived glycolipoprotein; structural protein of ginseng major latex-like protein (MLP151) and ribonuclease-like storage proteins; crude gintonin used in tests (protein)
chain 1: MGLTGKLICQTGIKSDGDVFHELFGTRPHHVPNITPANIQGCDLHEGEFGKVGSVVIWNYSIDGNAMIAKEEIVAIDEEDKSVTFKVVEGHLFEEFKSIVFSVHVDTKGEDNLVTWSIDYEKLNESVKDPTSYLDFLLSVTRDIEAHHLPK
chain 2: RSDYPWAMFALRLQWPAGFCEVNNACDTKSLLNTFTIHGLYPYNAKGTPALYCDGTAFDVNSVSDFLAEMHLAWPSHETNTEDIQFWEHEWKKHGRCSEALLKQTDYFRTALAFRKAFDIVGLLNQEGIYPNNDLYRPKMIKEAIKKHLNAVPEIDFTKNENSEYVLTDINVCVNQQATRFVDCPTDDATDDYRLKFVRLPSKMKFADPRTNSII
In the case of B1, the “gintonin activity on intracellular calcium level” value with LPA6 receptor is recorded as “No gintonin activity was detected”. In the assay with NMDA receptor, the “NMDA receptor activity when treated with gintonin” value is given as “NMDA receptor activity at a low level”. The EC50 in the assay with LPA2 receptor (LPA2 receptor, B103 cells, read-out: EC50, LPA receptor-mediated intracellular calcium increase) worked out at 4 ± 0.4 pM. For the same molecule, the “increase in intracellular calcium level” value in the assay with LPA2 receptor (gintonin 1 μg/ml, LPA2-expressing B103 cells) is 208.3 ± 13.0 µM.
